In the nanobody polyreactivity screen of Harvey et al. (2022):

Assay: yeast display, Sf9 membrane polyspecificity reagent, FACS + sequencing; frameworks hold sequencing errors
How it was run: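 A nanobody's polyreactivity label depends on the gate it was sorted from. Yeast display cells were stained with 10% biotinylated, detergent-solubilized Sf9 membrane reagent for 1 hour at 4 °C, enriched on streptavidin microbeads and sorted by FACS. The low and high (top ~1%) gates were set on anti-HA fluorescence for expression and streptavidin fluorescence for reagent binding.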

Sequence | polyreactivity (PSR sort gate)
QVQLVESGGGLVQAGGSLRLSCAASGSIFPVYAMGWYRQAPGKERELVATIRSGGARTYYADSVKGRFTISRDNAKNTVYLQMNSLKPEDTAVYYCAVDQSRWQARYYYWGQGTQVTVSS | high polyreactivity
QDQLVESGGGLVQAGGSLRLSCAASGSTFSYYAMGWYRQAPGKERELVAAITWSDGSTYYADSVKGRFTISRDYAKNTVYLQMNSLKPEDTAVYYCNAEISQLDGVTFKYDYWGQGTQVTVSS | low polyreactivity
QVQLVESGGGLVQAGGSIRLSCAASGSTFYLYAMGWSRPAPGKERELVATITNGGGTNYADSVKGRFTISRDNEKNTVYIQMNTLKPEDTAVYYCAATWYHRDGDYWGQGTQVTVSS | low polyreactivity
QVQLVESGGGLVQAGGSLRLSCAASGSTFRYYAMGWYRQAPGKERELVAGITRIGGRTYYADSVKGRFTISRDNAKNTVDLQMNSLKPEDTAVYYCAADYGGFLGYDYWGQGTQVTLSS | high polyreactivity
QVQLVESGGGLVQAGGSLRLSCAASGSTLRRYAMGWYRQAPGKERELVAAITRGSSTTYADSVKGRFTISRDNAKNTVYLQMNSLKPEDTAVYYCNTYFSRNFDYWGQGTQVTVSS | high polyreactivity
QLQLVESGGGLVQEGGSLRLSCAASGSTFVYNDKGWYRQAPGKDRELVAAITSGVRTYYSDYVKGRFTISRDNAKNTVYLQMNSLKPEDTALYYCGTGWRYAQYYYWGQGTQVTVSS | high polyreactivity
QVQLVESGGGLVQAGGTLRLSCAASGYTLKWYTMGWYRQAPGKERELVATIRRGGGTYYADSVKGRFTISRDNAKNTVYLQMNSLKPVDTPVYYCAAEWSSVYNYDYWGQGTQVTVSS | low polyreactivity
QVQLVESGGGLVQAGGSLRLSCAASGSIFSFYAMGWYRQAPGKERELVASITRRGGSTSYADSVKGRFTISRDNAKNTVYLQMNSLKPEDTAVYYCATESKFISVQRVGYYYVKFDYWGQGTQVTVSS | high polyreactivity
QVQLVESGGGLVQAGGSLRLSCAASGGTFSPNTMGWYRHAPGKERELVAAISSSGSTSYADSVKGRFTISRDNAKNTVYLQMNSLKPEDTAVYYCNADDTISYYASGFDNYDYWGQGSQVTVSS | low polyreactivity
QDQLVESGGGLVQAGGSLRLSCAASGRTFHKYAMGWSRQAPGKEMELVAAITGSGVRTYYADSVKGRFTISRDNAKNTVYLQMNSLKPEDTAVYYGNADSYNRNGDYWGQGTQVTVSS | high polyreactivity
QVQLVESGGGLVQAGGSLRLSCAASGFTLATYAMGWYRQAPGKERELVAAITRSGGSTYYADSVKGRFTISRDNAKNTVYLQMNSLKPEDTAVYYCNAREVRYEYNYWGQGTQVTVSS | low polyreactivity
QVQLVESGGGLVQAGGSLRLSCAASGSIFRKNAMGWYRQAPGKERELVAAITGTGRTTYADSVKGRFTISRDNAKNTVYLQMNSLKPEDTAVYYCATSYHRRYDYWGQGTQVTVSS | low polyreactivity
QVQLVESGGGLVQAGGSLRLSCAASGGTFFVYMGGYRQAPGNERELVADISGSGGGTYYADSVKGRFTISRDNAKNTVYLQMNSLKPEDTAVYYCATDVPTGIIRMYWGQGTQVTVSS | low polyreactivity
QVQLVESGGGLVQAGGSLRLSCAASGLTIDRNAMGWYRQAPGKERELVAAINWRGSRTYYADSVKGRFTISRDNAKNTVYLQMNSLKPEDTAVYYCAADWHTTYDYWGQVTQVTVSS | high polyreactivity
QVQLVESGGGLVQAGGSLLLSCAASVRIFQGYAMGWYRQEPGKERELVAAISSGGRTYYADSVKGRFTISRDNAKNTVYLQMNSLKPEDTAVYYCAARSPKAHGLQRFDYWGQGTQVTVSS | high polyreactivity
QVQLVESGGGLVQAGGSLRLSCAASGRIFYRNAMGWYRQAPGKERELVAAISSSAGSTYYADSVKGRFTISRDNAKNTVYLQMNSLKPEDTAVYYCAAGSGTFVTRYRYGYWGQGTQVTVSS | high polyreactivity
QVQLVESGGGLVQAGGSLRLSCAASGLILRGYAMGWYRQAPGKERELVAAISGSGGRTYYADSVKGRFTISRDNAKNTVYLQMNSLKPEDTAVYYCNKGGIREYDYWGQGTQVTVSS | high polyreactivity
QVQLVESGGGLVQAGGSLRLSCAASGSILVDNAMASYRQAPGKERELVARITGSGGSTYYADSVKGRFTISRDNAKNSVYLQMHILKPEDTAVYYCAARRVNAGWTYGLRGNYWGQGTQVTVSS | low polyreactivity
QVQLVESGGGLVQAGGSLRLSCAASGIIFGINAMGWYRQAPGKERELVATITSGGGTNYADSVKGRFTISRDNAKNTVYLQMNSLKPEDTAVYYCAKPTYRFYWGDFDYWGQGTQVTVSS | low polyreactivity
QVQLVESGGGLVLEGGSLRLSCPASGRIFTWNAMGWYRHAPGKERELVASISRSGTSTYYADSVKGRFTISRDNAKNTVYLQMNSLKPEDTAVYYCAAKRYGYKMYYWGQGTQVTVSS | high polyreactivity
QVQLVESGGGLVQAGGSLRLSCDASGRPFRRNAMGWYRQAPGKERELVAAITLSGGRTYADSLKGRFTISRDNAKNTVYLQMNSLKPEDTAVYYCAASSPGFSYWYNGYEYWGEGTQVTVSS | high polyreactivity
QVQLVESVGGLVQAGGSLRLSCAASGFTFYVYAMGWYRQAPGKERELVAAISRGGSTYYADSVKGRFTISRDNAKNTVYLQMNSLKPEDTAVYYCNRVPYVSSSKVRYSNGFDYWGQGTLVTVSS | low polyreactivity
